{
  "source": "patent US20040253623",
  "about": "“Nucleic acid binding proteins” (Gendaq Limited, published 2004)",
  "key": {"[1]": {"molecular_target": "optimised anti-ras zinc finger peptide (Asn at helix +3 of finger 1) (Artificial Sequence, S21N (finger 1 helix position +3 Ser to Asn; numbering of SEQ 14))", "sequence (chain, as listed by the source with the stated changes)": "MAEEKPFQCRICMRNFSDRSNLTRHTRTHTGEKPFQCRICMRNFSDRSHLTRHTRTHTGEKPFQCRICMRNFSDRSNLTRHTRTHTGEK", "assay": "apparent Kd; phage binding", "conditions": "protein: virion; label: biotin"}, "[2]": {"molecular_target": "anti-ras lead zinc finger peptide (3 fingers) (Artificial Sequence)", "sequence (chain, as listed by the source)": "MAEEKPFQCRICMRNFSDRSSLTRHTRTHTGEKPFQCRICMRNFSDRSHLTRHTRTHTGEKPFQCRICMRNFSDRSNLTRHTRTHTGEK", "assay": "apparent Kd; phage binding", "conditions": "protein: virion; label: biotin"}},
  "data": [
    {"binder": "EJ mutant (G12V) H-ras DNA, codons 8-16 (dsDNA) DNA 1: GTGGTGGGCGCCGTCGGTGTGGGCAAG DNA 2: CTTGCCCACACCGACGGCGCCCACCAC", "values": [
      {"measurement": "Kd", "setting": "[1]", "result": 3, "unit": "nM"},
      {"measurement": "Kd", "setting": "[2]", "result": 17, "unit": "nM"}
    ]}
  ]
}
